Experimental data reported in the supplement of paper PMC7877785.
± gives the uncertainty stated by the source.

Test: self-splicing fitness, log relative to wild type (ln ratio); higher = more splicing; Tetrahymena group I intron in knt gene, E. coli kanamycin selection, DiMSum; sequences stand for … in CUCUCU…GGAGGGAAAAGUUAUCAGGCAUGCACCUGGUAGCUAGUCUUUAAACCAAUAGAUUGCAUCGGUUUAAAAGGCAAGACCGUCAAAUUGCGGGAAAGGGGUCAACAGCCGUUCAGUACCAAGUCUCAGGGGAAACUUUGAGAUGGCCUUGCAAAGGGUAUGGUAAUAAGCUGACGGACAUGGUCCUAACCACGCAGCCAAGUCCUAAGUCAACAGAUCUUCUGUUGAUAUGGAUGCAGUUCACAGACUAAAUGUCGGUCGGGGAAGAUGUAUUCUUCUCAUAAGAUAUAGUCGGACCUCUCCUUAAUGGGAGCUAGCGGAUGAAGUGAUGCAACACUGGAGCCGCUGGGAACUAAUUUGUAUGCGAAAGUAUAUUGAUUAGUUUUGGAGUACUCGUGGUCG
In short: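 A randomised library covering all eight P1ex-region intron nucleotides was built with the intron in the knt kanamycin-resistance gene on pET-22b(+) and held in E. coli BL21(DE3). Cells were grown overnight at 37°C or 30°C on LB agar, with or without 25 μg/mL kanamycin, plus 100 μg/mL carbenicillin, 50 μM IPTG and 0.2% rhamnose, and pooled colonies were amplicon-sequenced on an Illumina HiSeq 2500. DiMSum fitness is the error-weighted combination of wild-type-normalised replicate fold changes, kanamycin versus none.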

Sequence	self-splicing fitness (ln) (30 °C)	self-splicing fitness (ln) (37 °C)
CUAGAGCAAUAUUACGGUGC	-3.31 ± 0.26	-2.32 ± 0.37
CUAGAGCAAUAUUACGGUGU	-4.1 ± 0.19	-2.92 ± 0.27
CUAGAGCAAUAUUACGUAAA	-3.81 ± 0.24	-1.84 ± 0.25
CUAGAGCAAUAUUACGUCAC	-3.34 ± 0.36	-1.72 ± 0.29
CUAGAGCAAUAUUACGUCAG	-0.419 ± 0.08	-0.271 ± 0.11
CUAGAGCAAUAUUACGUGCG	-0.299 ± 0.083	-0.255 ± 0.098
CUAGAGCAAUAUUACGUGGC	-3.87 ± 0.24	-1.8 ± 0.23
CUAGAGCAAUAUUACGUUAG	-1.27 ± 0.066	-0.217 ± 0.096
CUAGAGCAAUAUUACGUUUU	-3.96 ± 0.2	-3.8 ± 0.25
CUAUAGCAAUAUUACGAGAG	-3.63 ± 0.23	-2.73 ± 0.24
CUAUAGCAAUAUUACGAUAG		-2.54 ± 0.39
CUAUAGCAAUAUUACGAUCU	-3.99 ± 0.39	-1.91 ± 0.33
CUAUAGCAAUAUUACGAUUA	-3.05 ± 0.29	-0.967 ± 0.19
CUAUAGCAAUAUUACGCAGU	-3.51 ± 0.2	-2.55 ± 0.27
CUAUAGCAAUAUUACGCCCA	-3.06 ± 0.37	-1.7 ± 0.43
CUAUAGCAAUAUUACGCCCG	-0.353 ± 0.24	-0.0929 ± 0.34
CUAUAGCAAUAUUACGCGAG	-1.85 ± 0.29	0.335 ± 0.21
CUAUAGCAAUAUUACGCUAG	-3.14 ± 0.41	-2.99 ± 0.47
CUAUAGCAAUAUUACGCUUC	-2.46 ± 0.36	-1.14 ± 0.31

Sequence	self-splicing fitness (ln) (30 °C)	self-splicing fitness (ln) (37 °C)
CUAUAGCAAUAUUACGGUCG	0.227 ± 0.073	0.586 ± 0.11
CUAUAGCAAUAUUACGGUGC	-3.69 ± 0.28	-2.75 ± 0.29
CUAUAGCAAUAUUACGUAGU	-2.88 ± 0.16	-2.26 ± 0.23
CUAUAGCAAUAUUACGUCAC	-3.4 ± 0.28	-1.77 ± 0.31
CUAUAGCAAUAUUACGUGAC	-1.2 ± 0.15	-0.55 ± 0.16
CUAUAGCAAUAUUACGUUAG	-2.54 ± 0.16	-2.67 ± 0.19
CUAUAGCAAUAUUACGUUAU	-3.27 ± 0.21	-2.38 ± 0.32
CUAUAGCAAUAUUACGUUCU	-3.41 ± 0.35	-3.02 ± 0.47
CUCAAGCAAUAUUACGAAGG	-1.11 ± 0.071	-1.42 ± 0.15
CUCAAGCAAUAUUACGACAG	-1.19 ± 0.062	-0.407 ± 0.082
CUCAAGCAAUAUUACGACUG	-3.48 ± 0.17	-1.7 ± 0.2
CUCAAGCAAUAUUACGCAAU	-3.56 ± 0.31	-1.53 ± 0.32
CUCAAGCAAUAUUACGCGUA	-3.49 ± 0.22	-1.78 ± 0.15
CUCAAGCAAUAUUACGCUGC	-3.68 ± 0.21	-2.63 ± 0.19
CUCAAGCAAUAUUACGGCCU	-4.43 ± 0.39	-2.53 ± 0.32
CUCAAGCAAUAUUACGGCGA	-2.71 ± 0.2	-1.87 ± 0.23
CUCAAGCAAUAUUACGGCUU	-3.53 ± 0.18	-2.65 ± 0.21
CUCAAGCAAUAUUACGGGCA	-2.74 ± 0.15	-2.48 ± 0.16
CUCAAGCAAUAUUACGGUAG	-2.03 ± 0.074	-0.579 ± 0.08
